Source: the supplement of paper PMC12764529
± gives the half width of the 95% confidence interval.

assay: folding stability dG unfold (combined trypsin and chymotrypsin); higher = more stable
Method in brief: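 Bayesian fitting of sequencing counts gave K50 for each design. Unfolding free energy followed by setting this against a sequence-predicted unfolded-state K50 and a shared folded-state K50, either per protease or with trypsin and chymotrypsin combined. The designs, under 80 residues and lacking cysteine, were digested in a PA-tagged cDNA display format at 11 threefold-diluted protease concentrations and without protease, and only those with AlphaFold2 dimer inter-PAE above 15 were kept.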

Sequence | folding stability dG unfold
SAGGMVIKVTDAEEAIERVIELVKSLGPEAVIKEITVTNTGTVVKVEPGKKGTVSPDSTITVNIEKGSAGGS [r16_267_JUSTAS] | 0.662 ± 0.14 kcal/mol
SAGGSAGGSAGGMVKITFEKDPNSDKGRVTLTDPNATVTLEYDSEEEAEKAIKERFPELESAGGSAGGSAGG [r7_841_JUSTAS] | 0.435 ± 0.088 kcal/mol
SAGGPPPDTTVTVTLTRTTPTQWLIEFPATGEVREIPRDPAASDEEAKELVKELAKEEGYNVNINLTSAGGS [r16_446_JUSTAS] | 0.812 ± 0.3 kcal/mol
SAGGKKKPKVKTITITLPKKDIKIGDVITAEEIAKLLGLPKNAKIKVVEVKYDKETGEVTIKIEIYESAGGS [r16_165_TrROS_Hall] | 2.96 ± 0.11 kcal/mol
SAMITITLPNGTPVNVEVTVTETRASPDGTLTTTDYELTFHPPDGVPRRGKGTVLSDPATGTTTITIIESAG [r14_789_JUSTAS] | 1.48 ± 0.042 kcal/mol
SAGGSAGGSAGSMSTPRSSEKMEKDGGGETLVRTLTYPEPSLTRTVRTPPDGSSSSSTSAPSAGGSAGGSAG [r3_28_JUSTAS] | 0.235 ± 0.2 kcal/mol
SAGGGPMPIDVEVLEVTPDSVRIRYPETGAVFTFDPNKEHEFTLPDGSRITVTFKPDGSVSATVTVPGSAGG [r13_352_JUSTAS] | 4.16 ± 0.14 kcal/mol
SAGGSKSKIISASVFTTPDGEKVGVIKVLVKDPNGNPHLVIATIYSDGKIKVSVYYNGKVYTFEFDSAGGSA [r2_182_TrMRF] | 3.52 ± 0.12 kcal/mol
SAGMYSETLLEEREYPDGTKEKLYRITKPGGVEELRLVREPLTFDPNNGGPGRKEEVKTAKPDEEIELESAG [r5_122_JUSTAS] | 1.03 ± 0.1 kcal/mol
SAGGKIPISPEALKALDEALKNGDKGDTIPIQTPDGHYIVITPNGRMRFHNGNEREFPIGKIKAIIWSAGGS [r16_664_TrROS] | 0.156 ± 0.12 kcal/mol
SAGGSAGGSASMTTLEIEIELDESDIEKVKEELKKELPKNVKVIIHAYDKNGNIIEEIEIEFSAGGSAGGSA [r18_188_JUSTAS] | 1.6 ± 0.17 kcal/mol
GMVEVTEERFEPETGKRIVTIRAPGRDLTVTFDPSTGIATFYDPSDGRTFTVPFTSLEEAVEAAKELALEES [r1_177_JUSTAS] | 4.47 ± 0.11 kcal/mol
SAGGSAGGSAGGSMSVVVTVKDPRTGSTTTVTVSPAEVEEAIEEAKKKGYSVVTVSEGGSAGGSAGGSAGGS [r4_102_JUSTAS] | 1.68 ± 0.085 kcal/mol
QEIPIKELIKEALENGRPIVFPNGMEITDINPDGSITVKMPYYNPDDPGQPVQPVEMQIKIDEDGRIEVEFS [r1_284_TrROS] | 1.45 ± 0.12 kcal/mol
SAGKKKIKIEIVKVEKNENGETIIRVKVKLEDGSEKEITINLDDLKNGNLKNMTAEEIAKLFPNIEIESAGG [r19_74_TrROS_Hall] | 1.88 ± 0.18 kcal/mol
SAGIEEVAKEIAETLEELLPSEYKILDAKAIPLPDDVVIVPITVQKFDPNGKPLGELQFVVVIPPGEASAGG [r19_28_TrMRF] | 0.636 ± 0.062 kcal/mol

Sequence | folding stability dG unfold
SMLSEMPPEELAERIARELGLVGAEVEAVRVGDVLLVPLRLRDPVRDEVRLLVLLVVPEDDGRVLLTDLSSA [r9_1042_TrMRF] | 2.16 ± 0.091 kcal/mol
SAGGSAGGSMRIEFPELGVEVELEPLPGPHVLLRAVFPDGRVYLFRLDPDGRLVEVEPVEVLASAGGSAGGS [r12_56_TrMRF] | 3.23 ± 0.11 kcal/mol
SAGGSAGGEWVIINIMFRFPPGDPNIKIEIKFPGLPKDMKIEYSIFPTDNWYYIMVSIWVPPNASAGGSAGG [r6_482_TrROS] | 4.85 ± 0.34 kcal/mol
SAGGSAGGSSFEITVYHPDKGKPFKAKVDIEPELVDGDGKPVLVYKAKITIGDKPFEAVFVLNSAGGSAGGS [r20_39_TrMRF] | 2.63 ± 0.14 kcal/mol
SAGGSAGGSAGGGYTLVTVTLRSPTPTEEVVEEKYPPSVPLEEVKAKYEPLGWEVSFDLLSAGGSAGGSAGG [r7_226_JUSTAS] | 0.832 ± 0.061 kcal/mol
SAGGSAGGSAGGVPPESVLLSEEKVGGKTVEIVRDPATGKLYRVTKVPGSDSIEVEELGLSAGGSAGGSAGG [r7_179_JUSTAS] | 2.43 ± 0.092 kcal/mol
SLSITVPPDKGLVLVNEGLKDGKVKLFLDDKVEEVEVPAGETLVFEVPPDYKGFKLEVIGDDGVVLSVDGSA [r9_143_TrMRF] | 0.599 ± 0.22 kcal/mol
SAGGGKPVNILIKKPNEIKIIPIPVVKIEPLESPDKLYIIFEDGYIMEFDPKTLELLSIEKVKPIEEASAGG [r13_636_TrMRF] | 1.69 ± 0.3 kcal/mol
SAGMTAEELAAEALAKLPPGAKEVTVEIEVNGELVTVTITVEAAPPPPPPEETITTVDEDTGEVREETLSAG [r5_236_TrROS_Hall] | 0.854 ± 0.068 kcal/mol
SAGGSAGGSADGPPTFRVRIKWKNGKKMKFEIDPNDSLEQVADPLSKLPGIDDIKDLEIYPSAGGSAGGSAG [r3_308_TrROS] | 0.764 ± 0.18 kcal/mol
SAGSMELLEKKEGKLPDGRVYTTETLRNPANGLYEVKTFVFEPGGNPLAEERITYEGDKLVSSETIYLGSAG [r14_828_JUSTAS] | 0.594 ± 0.077 kcal/mol
SAGGSAGGSAGPVLKIKVEVKLEKKYDKNGKLVEEKLEVKVEIELLEPAPPASDEELKKKSAGGSAGGSAGG [r11_131_TrROS_Hall] | 1.6 ± 0.39 kcal/mol
SAGMEEKLVEAVFEEGPLEEAVEFIRDFLESEGYEVEPLEVEVLSVEETEEGPRVRVRARVLVRPPDASAGG [r19_325_TrMRF] | 1.34 ± 0.18 kcal/mol
SPLKPGDVYTEPGGPLLRVEKVTLSEDPNKFPKKLEIELVPIPPPTPTLEEYTLPNGERRTLVLFEFDGPSA [r9_914_JUSTAS] | -0.217 ± 0.42 kcal/mol
SADALKKILSNIHSVEFDPKWGWVTIHFPNKSKIKKALKEGFPRVEMQEDPDGHMMIRIRVPKLPPGQPSAG [r14_115_TrROS] | 2.35 ± 0.2 kcal/mol
SAMTLTVRVKATPEQLKEALEEETGAKVTIEEEEDGVLTITVEVSEEEREKLAEALKKLPGLEIEIEEESAG [r14_521_TrROS_Hall] | 1.9 ± 0.091 kcal/mol
